Laboratory results reported in patent US8633156B2, “Insulin derivatives having an extremely delayed time-action profile” (Sanofi-Aventis Deutschland GmbH, priority 2008, dated 2014).

Key:
[1] = from Kohn et al., cited from earlier work
[2] = system: healthy male normal glycemic Wistar rats; assay: Blood glucose-lowering effect of insulin analogues in rats; type: in vivo, rat; conditions: dose 9 nmol/kg s.c., n=8, blood glucose up to eight hours after injection
Protocol: In order to test the insulin derivatives of the invention for their biopharmacological and physicochemical properties, a solution of the compounds was prepared as follows: the insulin derivative of the invention was dissolved with a target concentration of 240±5 μM in 1 mM hydrochloric acid with 80 μg/mL zinc (as zinc chloride). For this purpose, initially an amount of the freeze-dried material which is about 30% higher than required on the basis of the molecular weight and the desired concentration was weighed out. The concentration present was then determined by analytical HPLC and the solution was subsequently made up to the volume necessary to achieve the target concentration with 5 mM hydrochloric acid with 80 μg/mL zinc. If necessary, the pH was readjusted to 3.5±0.1. After the final analysis by HPLC to verify the target concentration of 240±5 μM, the finished solution was transferred by means of a syringe with a 0.2 μm filter attachment into a sterile vial which was closed with a septum and a crimped cap. […] Blood samples are taken from the animals immediately before the injection of the insulin analogue and at regular intervals up to eight hours after the injection, and the blood glucose content therein is determined.

## Arg (A0), Gly (A21), Arg (B31), Arg (B32) human insulin [Compound 18]
[1]; calculated
  calculated pl: 7.58
[1]; experimentally determined
  experimentally determined pl: 7.3

## human insulin
[2]
  hypoglycemic effect: hypoglycemic effect
[1]
  isoelectric point (pl): 5.6
